Assay results as given in paper PMC5490261, “The structural and functional characterization of human RecQ4 reveals insights into its helicase mechanism”.

Key:
RecQ4 427-1208 H615L = target: T1, RecQ4 427-1208 H615L (Homo sapiens, UniProt O94761 427-1208, H615L); test: fluorescence polarization; WT-like affinity; figure values not assignable from text layer; 20 mM HEPES pH 8.0, 10 mM NaCl, 5% glycerol, 1 mM MgCl2, 0.5 mM TCEP, 0.5 nM Cy3-ssDNA; temperature not stated; details: protein: recombinant; tags: Trx-His6 removed by 3C protease; label: 5' Cy3
T1 sequence: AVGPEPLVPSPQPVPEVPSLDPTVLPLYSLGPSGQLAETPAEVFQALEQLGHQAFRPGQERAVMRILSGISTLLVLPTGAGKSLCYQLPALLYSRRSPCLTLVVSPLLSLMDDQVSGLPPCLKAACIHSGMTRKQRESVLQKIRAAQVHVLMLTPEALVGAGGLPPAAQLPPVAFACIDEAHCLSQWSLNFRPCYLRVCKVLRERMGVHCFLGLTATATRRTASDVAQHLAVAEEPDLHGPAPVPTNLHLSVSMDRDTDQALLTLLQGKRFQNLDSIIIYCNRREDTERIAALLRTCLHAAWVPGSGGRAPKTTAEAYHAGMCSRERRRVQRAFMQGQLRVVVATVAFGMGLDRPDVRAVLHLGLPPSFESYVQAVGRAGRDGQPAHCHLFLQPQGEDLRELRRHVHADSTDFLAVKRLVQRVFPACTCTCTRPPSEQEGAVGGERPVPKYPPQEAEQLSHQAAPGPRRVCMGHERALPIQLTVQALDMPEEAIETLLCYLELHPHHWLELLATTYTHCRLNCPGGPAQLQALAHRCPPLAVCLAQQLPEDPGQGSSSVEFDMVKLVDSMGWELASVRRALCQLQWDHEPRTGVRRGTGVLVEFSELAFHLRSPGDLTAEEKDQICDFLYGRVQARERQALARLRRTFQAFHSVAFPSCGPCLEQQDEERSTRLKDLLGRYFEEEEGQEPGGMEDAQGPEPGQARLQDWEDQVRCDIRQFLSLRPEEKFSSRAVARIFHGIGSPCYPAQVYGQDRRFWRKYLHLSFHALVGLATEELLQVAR

RecQ4 427-1208 F617L = target: T2, RecQ4 427-1208 F617L (Homo sapiens, UniProt O94761 427-1208, F617L); test: as above; details: protein: recombinant; tags: Trx-His6 removed by 3C protease; label: 5' Cy3
T2 sequence: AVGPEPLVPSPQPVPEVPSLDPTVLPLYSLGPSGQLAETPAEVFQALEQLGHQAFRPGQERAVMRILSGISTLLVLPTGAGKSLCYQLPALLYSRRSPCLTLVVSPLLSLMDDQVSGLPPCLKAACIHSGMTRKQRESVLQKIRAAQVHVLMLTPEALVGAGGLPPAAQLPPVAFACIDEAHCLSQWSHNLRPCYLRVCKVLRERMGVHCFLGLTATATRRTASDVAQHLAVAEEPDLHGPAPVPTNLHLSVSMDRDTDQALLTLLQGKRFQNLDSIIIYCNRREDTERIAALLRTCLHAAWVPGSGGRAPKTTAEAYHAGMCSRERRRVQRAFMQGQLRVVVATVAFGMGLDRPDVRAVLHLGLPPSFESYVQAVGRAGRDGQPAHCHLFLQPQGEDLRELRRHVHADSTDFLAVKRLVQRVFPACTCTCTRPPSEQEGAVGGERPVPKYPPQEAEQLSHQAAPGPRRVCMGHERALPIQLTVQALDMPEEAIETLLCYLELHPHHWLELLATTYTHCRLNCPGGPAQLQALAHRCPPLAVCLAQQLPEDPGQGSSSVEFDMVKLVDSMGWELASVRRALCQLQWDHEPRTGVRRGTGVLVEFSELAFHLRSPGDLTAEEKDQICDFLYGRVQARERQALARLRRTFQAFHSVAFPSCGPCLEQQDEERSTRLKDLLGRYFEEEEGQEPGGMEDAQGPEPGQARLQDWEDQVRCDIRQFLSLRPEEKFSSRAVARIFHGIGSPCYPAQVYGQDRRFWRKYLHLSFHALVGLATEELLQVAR

B1: T3-Cy3 (ssDNA)
DNA: CCATTCCACCCTCTATTTTTTTTTTTTTTT
binding result (RecQ4 427-1208 H615L): binds
binding result (RecQ4 427-1208 F617L): binds
